In patent US7645449B2, “Sensitizing cells for apoptosis by selectively blocking cytokines” (priority 2003, dated 2010):

Assays:
[1] = system: Bcl-xL and cFlip/FLAME-1 in bladder tumor cells (RT112); test: Western blot of apoptosis-related proteins in RT112 cells; type: cell-based, human
Method: The observation that tumor cells treated with IL-4 display a reduced sensitivity to chemotherapeutic drugs led us to investigate whether this cytokine would influence the expression of apoptosis regulatory genes. Western blot analysis of apoptosis-related proteins was performed on cancer cell lines treated for 48 hours with IL-4 as compared to untreated or IL-2-treated controls. […] The increased expression of cFlip/FLAME-1 prompted us to investigate if IL-4 could protect tumor cells from death receptor stimulation. CD95 ligand (CD95L) is one of the major effector molecules of cytotoxic T lymphocytes and NK cells.
Cell pellets were washed twice with cold PBS and lysed on ice for 30 minutes with 1% NP40 lysis buffer (20 mM Tris-HCl pH 7.2, 200 mM NaCl, 1% NP40) in the presence of 1 mM phenylmethylsulphonyl fluoride (PMSF) and 2 μg/ml each of aprotinin, leupeptin and pepstatin. Cell debris was removed by centrifugation at 13,000 rpm for 10 minutes at 4° C. Lysate concentration was determined using the Bio-Rad protein assay (Bio-Rad Laboratories, Richmond, Calif.). Aliquots of cell extracts containing 30 μg of total protein were resolved on 10% or 12% SDS-PAGE and transferred to a Hybond-C extra nitrocellulose membrane (Amersham Pharmacia Biotech, Piscataway, N.J.). […]

[2] = system: Bcl-xL and Bcl-2 in normal thyrocytes; test: Immunoblot of Bcl-xL and Bcl-2 in normal thyrocytes cultured with cytokines; type: cell-based, human; settings: after 48 hours of culture; IL-4 20 ng/ml, IL-10 40 ng/ml, IFN-γ 1000 IU/ml
Method: Thyroid cell purification and culture. Thyroid tissues from normal, PTC, FTC and UTC were digested for 2 hours with collagenase (1.5 mg/ml) (Gibco BRL, Grand Island, N.Y.) and hyaluronidase (20 μg/ml) (Sigma Chemical Co., St. Louis, Mo.) in DMEM. Thyrocytes were purified from the digested tissues by hematopoietic cell depletion with anti-CD45-coupled beads (Dynal, Wirral Merseyside, U.K.) and 12 hours of flask adherence, which allowed removal of other cells. After additional 12 hours of culture, thyroid cells were allowed to grow in monolayer for the immunocytochemistry or detached with trypsin+EDTA following exposure to cytokines or chemotherapeutic agents for functional and protein analyses. Thyrocytes were cultured in standard DMEM with 10% heat-inactivated FBS (Hyclone Laboratories, Logan, UK) in the presence or absence of human recombinant IL-4 (20 ng/ml), IL-10 (40 ng/ml) or IFN-γ (1000 IU/ml) (uroclone, Paignton, UK) and cisplatin (300 ng/ml), doxorubicin (5 μM) and taxol (5 μM) (Sigma) or TRAIL (Alexis, San Diego, USA). For the IL-4 and IL-10 neutralization, thyroid cancer cells were pretreated, for 48 hours, with anti-human IL-4 and IL-10 neutralizing antibodies (1 μg/ml) (R&D systems, MN, USA).
Protein isolation and Western Blotting. Cell pellets were resuspended in ice-cold NP-40 lysis buffer (50 mM Tris-HCl, pH 7.5, 150 mM NaCl, 1 mM EGTA, 1% NP-40) containing 1 mM PMSF, leupeptin (1 μg/ml), pepstatin (1 μg/ml) and aprotirni (1 μg/ml). Each lysate (30 μg) was fractioned on 12% SDS-polyacrylamide gels and blotted to nitrocellulose (Hybond, Amersham, Little Chalfont Buckinghamshire England, UK). Membrane was blocked for 1 h with nonfat dry milk in TBS containing 0.05% Tween 20 and successively incubated for 2 h with Abs specific to actin (Ab-1, mouse IgM, Calbiochem, Darmstadt, Germany), Bcl-2 (124, mouse IgG1, Upstate Biotechnology Inc.), Bcl-xL (H-5, mouse IgGl, Santa Cniz Biotechnology), IL-4 (3007.11, mouse IgG1, R&D Systems, Inc., Minneapolis, USA), IL-10 (23738.111, mouse IgG2b, R&D Systems), IFN-γ (25718.111, mouse IgG2a, R&D Systems). […]

B1: IL-4: human recombinant IL-4 (protein, UniProt P05112 25-153, looked up)
Interleukin-4: HKCDITLQEIIKTLNSLTEQKTLCTELTVTDIFAASKNTTEKETFCRAATVLRQFYSHHEKDTRCLGATAQQFHRHKQLIRFLKRLDRNLWGLAGLNSCPVKEANQSTLENFLERLKTIMREKYSKCSS
[1]; 48 hours with IL-4
  levels of caspases and other pro- and anti-apoptotic Bcl-2 family members: remained unchanged
[1]; 48 hours with IL-4, compared to untreated or IL-2-treated controls
  levels of Bcl-xL and cFlip/FLAME-1: increased
[2]
  Bcl-xL and Bcl-2 expression in normal thyrocytes: upregulated
